Experiments:
Assay in all cases: binding ELISA, biotinylated peptide on neutravidin plate, Fab titrated
[1] = target: T1, Peptide-92
T1 peptide: SCAAGASYAWPYCL

[2] = target: T2, Peptide-41
T2 peptide: MDWCPRDLWVHCFA

[3] = target: T3, Peptide-79
T3 peptide: ACDTYFAGMINECF

[4] = target: T4, Peptide-87
T4 peptide: YCAGHAWQYINKCL

[5] = target: T5, Peptide-84
T5 peptide: YCAGHSPINIGKCL

[6] = target: T6, Peptide-151
T6 peptide: SCSAGAAYYWPWCL

[7] = target: T7, Peptide-143
T7 peptide: TCAAGAAWGWPLCF

[8] = target: T8, Peptide-138
T8 peptide: LCAAGASWPWPVCL

[9] = target: T9, Peptide-144
T9 peptide: LCAAGATYPWPLCL

[10] = target: T10, Peptide-154
T10 peptide: TCAAGAHYPWPACL

[11] = target: T11, Peptide-149
T11 peptide: TCSAGATYEWPRCL

B1: anti-CD28 Fab (Fab, V domains shown)
VH: QVQLVQSGAEVKKPGASVKVSCKASGYTFTSYYIHWVRQAPGQGLEWIGSIYPGNVNTNYNEKFKDRATLTVDTSISTAYMELSRLRSDDTAVYFCTRSHYGLDWNFDVWGQGTTVTVSS
VL: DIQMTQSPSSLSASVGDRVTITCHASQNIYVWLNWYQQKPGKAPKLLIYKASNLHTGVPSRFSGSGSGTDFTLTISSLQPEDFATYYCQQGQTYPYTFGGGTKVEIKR
Question: For B1, which EC50 [1] is on record?
Answer: The EC50 was 54 nM.

Question: What about the EC50 [2] of the same binder?
Answer: Its EC50 is 490 nM.

Question: What about the EC50 [3] of the same binder?
Answer: Its EC50 is 97 nM.

Question: And the EC50 [4]?
Answer: The EC50 was 49 nM.

Question: And the EC50 [5]?
Answer: Its EC50 is 337 nM.

Question: And the EC50 [6]?
Answer: Its EC50 is 112 nM.

Question: And the EC50 [7]?
Answer: The EC50 was 5.6 nM.

Question: And the EC50 [8]?
Answer: The EC50 was 13.1 nM.

Question: What about the EC50 [9] of the same binder?
Answer: The EC50 was 5.6 nM.

Question: What about the EC50 [10] of the same binder?
Answer: Its EC50 is 4.2 nM.

Question: And the EC50 [11]?
Answer: The EC50 was 12.8 nM.

— patent US20260242478A1 (published 2026)
